Legend:
[1] = molecular target: T1, colligin/Hsp47 on the surface of human carcinoma cells (human, UniProt P50454 19-418); assay: DSP cross-linking of surface-labelled cells, immunoprecipitation with anti-CD81 mAbs
T1 construct: whole, on cells; Endogenous protein on cells or in plasma membrane preparations and lysates of surface-biotinylated human SCC cells; also called CBP2; colligin/CBP2/Hsp47
T1 sequence (looked up): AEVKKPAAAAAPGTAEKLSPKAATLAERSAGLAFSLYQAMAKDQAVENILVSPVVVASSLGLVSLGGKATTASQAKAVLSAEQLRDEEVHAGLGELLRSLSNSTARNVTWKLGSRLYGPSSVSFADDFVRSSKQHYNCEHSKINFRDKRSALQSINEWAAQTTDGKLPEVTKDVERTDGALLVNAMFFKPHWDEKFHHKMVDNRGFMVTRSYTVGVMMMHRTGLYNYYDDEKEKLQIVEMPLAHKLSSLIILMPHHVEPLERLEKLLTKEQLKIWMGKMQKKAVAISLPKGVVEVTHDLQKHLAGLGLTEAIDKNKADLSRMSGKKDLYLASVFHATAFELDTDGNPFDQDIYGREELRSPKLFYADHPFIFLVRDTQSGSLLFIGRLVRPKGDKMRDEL

[2] = molecular target: T2, colligin/Hsp47 of the murine Lewis Lung Carcinoma (LL/2) cell line (murine, UniProt P19324 18-417); assay: as above
T2 construct: whole, on cells; Endogenous protein of LL/2 cells
T2 sequence (looked up): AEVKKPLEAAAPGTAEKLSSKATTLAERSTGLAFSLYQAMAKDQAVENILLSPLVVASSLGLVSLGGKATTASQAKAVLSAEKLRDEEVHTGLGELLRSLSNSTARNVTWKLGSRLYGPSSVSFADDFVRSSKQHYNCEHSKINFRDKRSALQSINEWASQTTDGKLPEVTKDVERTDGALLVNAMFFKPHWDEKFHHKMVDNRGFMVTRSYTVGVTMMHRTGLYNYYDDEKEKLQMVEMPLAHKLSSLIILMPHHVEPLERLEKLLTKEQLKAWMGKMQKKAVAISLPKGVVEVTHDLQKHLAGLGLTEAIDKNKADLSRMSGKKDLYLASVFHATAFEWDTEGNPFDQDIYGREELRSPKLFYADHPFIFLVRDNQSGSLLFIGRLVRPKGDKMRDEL

| Binder | binding result [1] | binding result [2] |
| --- | --- | --- |
| CD81 of human SCC cells (other, UniProt P60033 1-236, looked up, whole, on cells) MGVEGCTKCIKYLLFVFNFVFWLAGGVILGVALWLRHDPQTTNLLYLELGDKPAPNTFYVGIYILIAVGAVMMFVGFLGCYGAIQESQCLLGTFFTCLVILFACEVAAGIWGFVNKDQIAKDVKQFYDQALQQAVVDDDANNAKAVVKTFHETLDCCGSSTLTALTTSVLKNNLCPSGSNIISNLFKEDCHQKIDDLFSGKLYLIGIAAIVVAVIMIFEMILSMVLCCGIRNSSVY | no binding |  |
| CD81 of murine LL/2 cells (other, UniProt P35762 1-236, looked up, whole, on cells) MGVEGCTKCIKYLLFVFNFVFWLAGGVILGVALWLRHDPQTTSLLYLELGNKPAPNTFYVGIYILIAVGAVMMFVGFLGCYGAIQESQCLLGTFFTCLVILFACEVAAGIWGFVNKDQIAKDVKQFYDQALQQAVMDDDANNAKAVVKTFHETLNCCGSNALTTLTTTILRNSLCPSGGNILTPLLQQDCHQKIDELFSGKLYLIGIAAIVVAVIMIFEMILSMVLCCGIRNSSVY |  | no binding |

— patent EP1161262B1 (University of Maryland, Baltimore, dated 2008)
